68 sequences from the domain aggregation screens of Martell et al. (2025) can be followed below.

A short description of this data set: soluble fraction after stress (log2 fold change); higher = more stays soluble; pooled small domains, quantitative proteomics. The note with it: stress: pH 4. The essentials:
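Aggregation propensity here comes from the fold change in the soluble amount of each small protein domain after acid stress, measured in pooled custom libraries by high-throughput quantitative proteomics. The acid stress was pH 4. On the log2 scale, higher values mean more of the domain stayed soluble.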

Regarding “HMIADPLVINKLMDSMALAINDYNPDSVEPVLDELRQYFSENQLRELSKAMDDFDFDEALNALTLLRT”, the “soluble fraction (log2)” value was -0.619.
In the case of “HMIALKNLREEKRMTQAELSKDLEISPSAIGMYEQGRRVPDVSTLKKISAYFNVSIDYLLGNSTSKDI”, the “soluble fraction (log2)” value is -0.0244.
For the sequence “HMIALLRLGTAPDIKAQAPLATILARHNGEMSAKDLWQRFGGEIDTFYAQLKTEVAHGWILEPT”, the “soluble fraction (log2)” value was 0.0698.
The same measure for “HMIAVLKQGVSKQQVENLITWFRSRGLDVHISEGKFQTIIGLIGDTSKVDIDLLNGLEIIESVKRI”: -0.832; for “HMIAVSQEQIKQIIVDDPSFHDANGKFSQALLTQYLNQRRMSEDQFVEEIRDQFLFQNLQNLVQNG”: -0.623; for “HMIDAAHLEKAILSLPEGARAVFVLIETEGFAHREVAELLGISEGTSKSQLNYAKKRLREILV”: -0.0621.
As for “HMIDAKTTLQELTQKSGKKPEYRLIKIEGPDHLRRFTVEVFIDGQSMGTGTGHSKKEAEQNAANFALKNLQ”, the “soluble fraction (log2)” value was at least 0.43.
As for “HMIDEQDLKKYILISTSVEELTDYLGATDRMLYDYLYSLKHVGQYWQLNERFLLDLYKLPNLVIVDKEDLE”, the “soluble fraction (log2)” value was -0.351.
As for “HMIDFDEQGNLWVHEMGPRHGDELNLIEKARNYGYPTVSQGDHYSGVKISNHEDIPIFKSPEKAWVPAISP”, the “soluble fraction (log2)” value is -0.373.
In the case of “HMIDFDHADIERLWNSIIHYVPERQKLDFAIDFIKSLEDIGVEHDVLRGSAELDPKLEEAVNTVFE”, the “soluble fraction (log2)” value is -0.315.
Regarding “HMIDIIEYIISEESKGLRADQGIALQNPQYSRSLIQKWIKKGSVLVNNKIIRTKEILLEGDKISITPEENI”, the “soluble fraction (log2)” value is -2.29.
In the case of “HMIDKIRYPELIMKLAHQQGGTIKRRDVEQLLHLQTKQAYRELSKLVDAGELVSVGRGPGAHYEVS”, the “soluble fraction (log2)” value is -0.0885.
In the case of “HMIDQNEDLLSGYIDEVLSQNPDKVNEYLKGKSGLIGFFMGQIKQKSATALDAALLKSQLETALEKLRIK”, the “soluble fraction (log2)” value was -0.00948.
Regarding “HMIDQSVVVQYLSKLTNTPYLKTREITMGEPYMQFERGEIKFQEYVEDIRALLPGGDRIDADRLRDIWMNS”, the “soluble fraction (log2)” value was -0.721.
For the sequence “HMIDRADLWEALRKLPEDTLKLFSLHFEKGMTHDEISKHTDIPVGTVKTKLRRGLIEARKLAREF”, the “soluble fraction (log2)” value is -0.394.
For the sequence “HMIDTPQELARLLRLLDEQNFEAEILFHKLRPDLLHLWSKEHVTRIAEALDAFDYQMALTLLNASP”, the “soluble fraction (log2)” value was -2.15.
As for “HMIDVNLVQRGKTLHLRRRVPMRYSSVERREYVSISLKTDSEAEARRKAGAAWDQMIAAWEARLA”, the “soluble fraction (log2)” value is -0.12.
The figure for “HMIDYTDTSAVKDSAAVAGRVREMINEGVPIADVNAFIRSASENGLISDDSARRLRYMNDSR” is at least 0.43; for “HMIEDMTINIEERLSLNGDIKKSEYILQYIKPDFIRKVILSPELNKGEIYIYDSKKKVMYLPLFDQVSEEI” it is -1.09.
In the case of “HMIEINNLEDLKLMKEFILKNGKYGFGVFVGGKYIGLSDIGSVNSFKDTLGLPVVSLGNDDFKRFTEAH”, the “soluble fraction (log2)” value is -0.653.
Consider “HMIEQEQAFLEQVLKKYSQEELVLTVGSRTLVKYSAGQLERLLEHYPHVRLASSPVNGEAGFLLSRG”, for which the “soluble fraction (log2)” value is -0.784.
The same measure for “HMIEQIELEARVPDELGGQRLDQVAAQMFDDFSRSRLTGWIRDGSLTADGQQLRPRDIVYGGTLLQLKAEQ”: -0.151.
The same measure for “HMIESFQNGLVEHDQFTRPNPWVTPNFSKIEVPSILLSGKHADIDLWKHQNSIENTKKNRPDLFKNYLKKN”: -0.357.
With “HMIEYILDYLANRGVYAASQGEQQQMEDGIARYLQENGLEDGNTGAYYQKYVSNHLQQISASDLKAYFLN”, the “soluble fraction (log2)” value was -1.49.
Regarding “HMIEYYDDEELDVFKGRQSDNYTNKEIEQFAEVLHTMRQDEVKGWNRSLILRSINLPDSLKDEVIMLI”, the “soluble fraction (log2)” value was -2.53.
The figure for “HMIFDPTTLPEKQLLVYGIISSHPGLNAKQISEMLTLKKSSIETAIKGLRKKEIIEYEGTTRNGG” is -0.17; for “HMIFEEDILKEFRGSLIFITHDRRFLDNIATRIIELDRGKLLSFPGNFSAYKKAKNEQLANEAVENA” it is -1.17; for “HMIFEETVFKDIAFGPKNMGLSEAEIKRRVYETAENIGLSQELMERSPFELSGGQKRRVAIAGVMAMEP” it is -0.878.
Take “HMIFELDSDRASAGNTIGKLVSKWNNTEVASVQFVSGDDTSNKDNASIYLNTRSGGSGNLVRLRITK”: the “soluble fraction (log2)” value was 0.108.
As to “HMIFRPALITDLDAVERHYTELLTREAETGRSSTNWSLGVYPTRQTATAAQAAGTLWVLEREGQVVASVI”, the “soluble fraction (log2)” value was -0.552.
As for “HMIFTPNGDRVNDVFEIEMGVKLEFQIIILNQQNQTVFKSADPDFKWDGTMLNGEPAPSGTYLYYFSAKD”, the “soluble fraction (log2)” value stood at 0.22.
In the case of “HMIGERIKRARAAAGLSMQALGKQVGISANMVKKYEHDQSMPSSGVLLKLATALSVRTEYFFRPA”, the “soluble fraction (log2)” value was -0.0616.
“HMIGGASVFKQFLPLADKMLLTLIHSEFEGDTYFPVFSEKEWLLQESSSLLSATGYQLSFQTYIR”: the “soluble fraction (log2)” value was 0.013.
As to “HMIGGEDEILKVVLEVLEEKPEAIEQYKNGRTNIVDFLVGQVMKKTRGQANPATTREFMIREIEK”, the “soluble fraction (log2)” value was -0.999.
With “HMIGKDLLGYEVFSESGDLVGILKDVMWLPHSDVYVITNGGKELLIPVIPEVVKGINHEQGVIVISPM”, the “soluble fraction (log2)” value is -1.04.
Consider “HMIGPYAAAKLMTNKDFVKWLSGGVEKSVFNPNSFGQHIRRLVQISEVNPDIRDEINAVVQGLTQ”, for which the “soluble fraction (log2)” value was -0.00821.
The figure for “HMIGRIKGQLIEKKSDSVVIDVHGIGYVVYVTEKTARSLTLGDQSRDISLYSELLVKEDLLQLVGFI” is -0.0095; for “HMIGRRLKVARASAGLSLRELAARMDGVVTPQAIGKYERNEDMPGSRALMALASALGVSEGYLLSD” it is -0.0156.
Take “HMIHDSAESVVFPFGKYKGYTLAHVIREHPHYTYWIRDNADFSPLWREAVSLALQNRDIGHLNLPHVK”: the “soluble fraction (log2)” value was -0.606.
As to “HMIHMNMGQKINQLRLQKGFTLEELGNLVGVGKSTVRKWENGMIANMKRDKILLVAEALDTSPAYLMGWD”, the “soluble fraction (log2)” value was -0.462.
Consider “HMIIENIVVEIKGEVYNPGLYILEQGSRINDLIELSGGFTKDANGTDLNLAKVLSDGEVIIVSKKG”, for which the “soluble fraction (log2)” value is -1.35.
The same measure for “HMIIIMKPNASEEAVRKVTHIIESKGLQVHLSKGSQVTIVGVVGDKTRLQGSNIEISEGVDKVVAVT”: -0.0906; for “HMIILDASASRAIGNGTIEETKWDFGNGESSTNRGGPIVERQIYANQAAYILKLSMKTNDGQLFTKEIQLL”: -0.0529; for “HMIINKFERRKEIQIQFNNQERIKFKDFFLNLSKENIIVSFLILLELVRESLIDFSGTNENDIEFFIK”: -0.834.
With “HMIITTPYKVTASAINIRSGRGTSYSIIGTVSKGQTVDVYNNSLSKGWVKVKFSGSVGYAYAKYLEK”, the “soluble fraction (log2)” value is -0.116.
Consider “HMIIVMSANANAREISEVIARIRAMGYDVHLSHGKERTIIGVIGRGTPIDREQLSLMSGVQQVMPV”, for which the “soluble fraction (log2)” value was -0.109.
On to “HMIKIEDILNVESVELSDSEYKKFLNGILINVKNLENGWAKVYSGNEFKGFGIVDKNLLKRKIVID”, for which the “soluble fraction (log2)” value is -0.407.
For “HMIKIEDYTNKDYNKVEASLEVKGLVVNIEYKAVDDKAKYKGKEDLIIDQSVKKDATLVKGDTIILYLPK”, the “soluble fraction (log2)” value came out at 0.0435.
Consider “HMIKISDYLSEEDLNFIKEMEKIYPYFDFDSEGNLILTKSIDELKDKYGFDEAFVSRLDTVLNSR”, for which the “soluble fraction (log2)” value is -0.243.
Consider “HMIKITLGWVISVRRHDLGYTQHKMARAVGISDLTVSRIESDDGITPDNNTLRKIAEYLKIDYNSLLTLK”, for which the “soluble fraction (log2)” value was -0.175.
Consider “HMIKLIKKDTNISELKMSKMPWDVMLYGKPYQVVSIKGYVHTIGGRRGENDLWMYPRDESPTYENLIEFQ”, for which the “soluble fraction (log2)” value was 0.279.
Consider “HMIKNKDRIQYTLAHRKAFRKIEKELLGYNTFRSLFHDLDKVFLYPFFDYKKVHNFHRNHAHH”, for which the “soluble fraction (log2)” value was determined as 0.0879.
For the sequence “HMIKRETNDNPVDPASLSLGDRVKILTLNQNGEIISLPDEKGLLQVQVGIMKIGVNVSDIMLI”, the “soluble fraction (log2)” value was -0.413.
In the case of “HMIKRITDEQHPVDVDRLLVVTFTNAAASEMRERIGDAIEAALEKDPYNQHLQRQLTLVHNAQITTIDS”, the “soluble fraction (log2)” value was determined as 0.00503.
In the case of “HMIKSEERIQNIKEYILEFQFTYHRTPTMAQIAEAVGTVKSNVYKYLSEMEERGILTRNKREIEINDTIQ”, the “soluble fraction (log2)” value was -0.588.
Turning to “HMIKSMTGYGSAKGTVEGIEVSVELKSVNNKFLDTSIRLPRSFLFAEETIKQAVSSHISRGKVDVFVSVDS”, the “soluble fraction (log2)” value was -0.0706.
On to “HMIKYTIEELGELTGFTRRTIRYYVQEGLIDPPAGRGRGGFYYDSHVQQLLRIKSFQEKGIGITAMVSLM”, for which the “soluble fraction (log2)” value was -1.71.
Take “HMILEEIIGKNIARYREAAGLTQATLAEKIGISTAFVSRVERGQKKMKVETLYATAKVLNVSVDALLS”: the “soluble fraction (log2)” value came to 0.0651.
In the case of “HMILKNVPSNLVNQRLDKVATVLFQTYSRTQIKKWILEGRLLVNGEISNPKDLVNENDEIEINPI”, the “soluble fraction (log2)” value is 0.3.
Turning to “HMILKQTHIVQELTGPIRLQEYGVGIFQQISTKSALKKALKKNQITVDGVVGSTATFIKGGEIIIYHVTE”, the “soluble fraction (log2)” value was -1.68.
As for “HMILNDRSELLDVVKRVIAANPASVADYRKGKKKVLGFLVGQAMKETKGQADPRILNELFLQELGEN”, the “soluble fraction (log2)” value was found to be 0.0701.
Take “HMILNNAKINTELNSLAEFTQRSLDSNTSEIGFYDYKKISYIASFATMKTTNWNVIIRAPINEFMGTVN”: the “soluble fraction (log2)” value came out at 0.203.
Regarding “HMILQTLSERVTETLRDWILHGHFKPGDKIEEVPIAERMGVSRTPVRAAFATLTNEGLIDHQPNRGYQVRV”, the “soluble fraction (log2)” value was 0.201.
Consider “HMILSTNFFRHIVPKEYQTSYGTMKKWLTDHNVIGTNSIPQGIGYRIPTQGLSSTFSFKVVDVLPDR”, for which the “soluble fraction (log2)” value was at least 0.43.
As for “HMIMDQTILRKQRELTDRLNRYRNEYYNHNKPSVSDEVYDRLFDELQSLEKETGVQMANSPTTTVG”, the “soluble fraction (log2)” value is 0.0972.
For “HMIMGTITKRTNPSGAIVYRAQIRIKKAGYPDFSESRTFSKKAMAVEWLKLREAELEMHPELLFR”, the “soluble fraction (log2)” value was 0.0366.
For the sequence “HMIMHLNQIIRNKRLAAGLTQEALAQKVGVTAPAVSKWEKGISYPDITLLPILARNLNTDVNTLLDFSA”, the “soluble fraction (log2)” value came out at 0.0644.
On to “HMIMNLNVLANNVRRLRTAQRLSQSALASKAGLSVPAIKNLENARNEPRVNTVQVIAHALEVRLQDLFAPT”, for which the “soluble fraction (log2)” value was 0.18.
